{
  "source": "paper PMC7617797",
  "about": "“The phosphorylated trimeric SOSS1 complex and RNA polymerase II trigger liquid-liquid phase separation at double-strand breaks”",
  "binders": {"B1": {"name": "21-mer ssDNA (pRMS630) (ssDNA)", "DNA": "GTGCCTTGCTAGGACATCTTT"}, "B2": {"name": "61-mer ssDNA (ssDNA)", "DNA": "GACGCTGCCGAATTCTACCAGTGCCTTGCTAGGACATCTTTGCCCACCTGCAGGTTCACCC"}, "B3": {"name": "R-loop (mixed)", "DNA 1": "B2 DNA", "DNA 2": "GGGTGAACCTGCAGGTGGGCGGCTGCTCATCGTAGGTTAGTTGGTAGAATTCGGCAGCGTC", "RNA": "AAAGAUGUCCUAGCAAGGCAC"}},
  "key": {"hSSB1;INTS3;c9orf80 [1]": {"molecular_target": "T1, hSSB1;INTS3;c9orf80 (Homo sapiens;Homo sapiens?;Homo sapiens?, UniProt Q9BQ15;Q68E01;Q9NRY2 1-211;1-1043;1-104, ||)", "T1 sequence (Q9BQ15 whole entry, chain 1 of 3)": "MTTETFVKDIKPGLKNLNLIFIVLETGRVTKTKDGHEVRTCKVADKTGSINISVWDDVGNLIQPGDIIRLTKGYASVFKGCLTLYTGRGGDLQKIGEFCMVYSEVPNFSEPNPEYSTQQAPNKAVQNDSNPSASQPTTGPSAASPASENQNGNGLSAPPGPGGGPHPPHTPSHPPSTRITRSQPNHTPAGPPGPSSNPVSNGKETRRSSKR", "T1 sequence (Q68E01 whole entry, chain 2 of 3)": "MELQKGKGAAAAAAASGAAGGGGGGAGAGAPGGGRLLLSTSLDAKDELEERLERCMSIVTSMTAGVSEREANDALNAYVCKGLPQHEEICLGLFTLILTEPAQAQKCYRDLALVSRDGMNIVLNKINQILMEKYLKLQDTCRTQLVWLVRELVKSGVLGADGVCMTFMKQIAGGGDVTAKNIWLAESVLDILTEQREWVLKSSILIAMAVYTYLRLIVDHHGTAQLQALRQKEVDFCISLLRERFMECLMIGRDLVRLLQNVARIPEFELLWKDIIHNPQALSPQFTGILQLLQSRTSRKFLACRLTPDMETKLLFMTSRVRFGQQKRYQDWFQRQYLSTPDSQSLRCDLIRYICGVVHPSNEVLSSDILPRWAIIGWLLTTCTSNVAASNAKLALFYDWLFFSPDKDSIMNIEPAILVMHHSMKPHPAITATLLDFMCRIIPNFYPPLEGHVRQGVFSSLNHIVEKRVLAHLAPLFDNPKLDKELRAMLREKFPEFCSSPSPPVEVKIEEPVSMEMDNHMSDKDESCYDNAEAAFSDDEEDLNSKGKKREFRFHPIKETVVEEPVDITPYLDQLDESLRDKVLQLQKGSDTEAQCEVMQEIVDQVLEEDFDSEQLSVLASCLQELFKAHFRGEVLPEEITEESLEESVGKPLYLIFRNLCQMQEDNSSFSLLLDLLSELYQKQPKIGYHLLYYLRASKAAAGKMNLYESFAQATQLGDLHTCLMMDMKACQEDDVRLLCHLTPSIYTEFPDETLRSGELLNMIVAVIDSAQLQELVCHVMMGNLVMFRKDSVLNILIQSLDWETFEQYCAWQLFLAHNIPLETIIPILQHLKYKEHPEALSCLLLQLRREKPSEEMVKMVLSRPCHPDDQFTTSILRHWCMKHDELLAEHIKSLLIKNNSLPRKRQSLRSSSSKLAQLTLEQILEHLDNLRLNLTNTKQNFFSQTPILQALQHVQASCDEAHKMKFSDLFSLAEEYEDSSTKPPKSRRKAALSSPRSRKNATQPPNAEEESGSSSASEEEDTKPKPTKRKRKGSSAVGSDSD", "T1 sequence (Q9NRY2 whole entry, chain 3 of 3)": "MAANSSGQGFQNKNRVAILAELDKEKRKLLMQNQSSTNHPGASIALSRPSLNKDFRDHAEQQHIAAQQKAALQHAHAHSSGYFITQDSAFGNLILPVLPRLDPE", "test": "EMSA; EMSA: 25 mM Tris-HCl pH 7.5, 1 mM DTT, 5 mM MgCl2, 100 mM NaCl, 20 min at 37 C; 10 nM substrate; protein 22-167 nM (RPA 5-40 nM); 7.5% native PAGE, 0.5x TBE, 4", "conditions": "protein: recombinant;recombinant;recombinant; tags: His6 (2BT);His6-TEV (438B);His6-TEV (438B); copies: 1;1;1; label: 5' Cy3; single strand"}, "hSSB1 Y115A": {"molecular_target": "hSSB1 Y115A (Homo sapiens, UniProt Q9BQ15 1-211, Y115A)", "sequence (Q9BQ15 whole entry Y115A)": "as the sequence (Q9BQ15 whole entry, chain 1 of 3) above, with Y115A counted along it", "test": "EMSA; EMSA: 25 mM Tris-HCl pH 7.5, 1 mM DTT, 5 mM MgCl2, 100 mM NaCl, 20 min at 37 C; 10 nM substrate; protein 22-167 nM (RPA 5-40 nM); 7.5% native PAGE, 0.5x TBE, 4", "conditions": "protein: recombinant"}, "hSSB1 Y102A": {"molecular_target": "hSSB1 Y102A (Homo sapiens, UniProt Q9BQ15 1-211, Y102A)", "sequence (Q9BQ15 whole entry Y102A)": "as the sequence (Q9BQ15 whole entry, chain 1 of 3) above, with Y102A counted along it", "test": "EMSA; EMSA: 25 mM Tris-HCl pH 7.5, 1 mM DTT, 5 mM MgCl2, 100 mM NaCl, 20 min at 37 C; 10 nM substrate; protein 22-167 nM (RPA 5-40 nM); 7.5% native PAGE, 0.5x TBE, 4", "conditions": "protein: recombinant"}, "hSSB1 Y102A/Y115A": {"molecular_target": "hSSB1 Y102A/Y115A (Homo sapiens, UniProt Q9BQ15 1-211, Y102A;Y115A)", "sequence (Q9BQ15 whole entry Y102A/Y115A)": "as the sequence (Q9BQ15 whole entry, chain 1 of 3) above, with Y102A, Y115A counted along it", "test": "EMSA; EMSA: 25 mM Tris-HCl pH 7.5, 1 mM DTT, 5 mM MgCl2, 100 mM NaCl, 20 min at 37 C; 10 nM substrate; protein 22-167 nM (RPA 5-40 nM); 7.5% native PAGE, 0.5x TBE, 4", "conditions": "protein: recombinant"}, "hSSB1;INTS3;c9orf80 [2]": {"molecular_target": "T1, hSSB1;INTS3;c9orf80", "test": "competition EMSA; substrate pre-coated with RPA (10 or 30 nM); EMSA: 25 mM Tris-HCl pH 7.5, 1 mM DTT, 5 mM MgCl2, 100 mM NaCl, 20 min at 37 C; 10 nM substrate; protein 22-167 nM (RPA 5-40 nM); 7.5% native PAGE, 0.5x TBE, 4", "conditions": "protein: recombinant;recombinant;recombinant; tags: His6 (2BT);His6-TEV (438B);His6-TEV (438B); copies: 1;1;1; label: 5' Cy3 on strand 1; 21-nt RNA paired to strand 1 in a 21-nt bubble; 20-bp flanking duplexes"}, "[3]": {"conditions": "label: 5' Cy3 on strand 1, 21-nt RNA paired to strand 1 in a 21-nt bubble, 20-bp flanking duplexes"}},
  "data": [
    {"binder": "B1", "values": [
      {"measurement": "binding result", "setting": "hSSB1;INTS3;c9orf80 [1]", "result": "no binding"}
    ]},
    {"binder": "B2", "values": [
      {"measurement": "binding result", "setting": "hSSB1 Y115A; label: 5' Cy3, single strand", "result": "binds"},
      {"measurement": "binding result", "setting": "hSSB1 Y102A; label: 5' Cy3, single strand", "result": "binds"},
      {"measurement": "binding result", "setting": "hSSB1 Y102A/Y115A; label: 5' Cy3, single strand", "result": "binds"}
    ]},
    {"binder": "B3", "values": [
      {"measurement": "binding result", "setting": "hSSB1 Y115A; [3]", "result": "binds"},
      {"measurement": "binding result", "setting": "hSSB1 Y102A; [3]", "result": "binds"},
      {"measurement": "binding result", "setting": "hSSB1 Y102A/Y115A; [3]", "result": "binds"},
      {"measurement": "binding result", "setting": "hSSB1;INTS3;c9orf80 [2]", "result": "binds"}
    ]}
  ]
}
